Measurements reported in publication PMC7566454, “Sorcin is an early marker of neurodegeneration, Ca^2+ dysregulation and endoplasmic reticulum stress associated to neurodegenerative diseases” (Cell Death & Disease, 2020).
Values belong to the molecule of their own block, whether it stands above or below them.

Assays:
human Sorcin [1] = target: T1, human Sorcin (human, UniProt P30626 1-198); experiment: SPR; FastStep (SensiQ Pioneer); human Sorcin amine-coupled to a COOH5 chip (2000 RU); peptides 1.56-100 μM; 20 mM Hepes pH 7.4, 150 mM NaCl, 0.005% P20, 100 μM CaCl2; best fits with 2 sites
T1 construct: Sorcin, human
T1 sequence (looked up): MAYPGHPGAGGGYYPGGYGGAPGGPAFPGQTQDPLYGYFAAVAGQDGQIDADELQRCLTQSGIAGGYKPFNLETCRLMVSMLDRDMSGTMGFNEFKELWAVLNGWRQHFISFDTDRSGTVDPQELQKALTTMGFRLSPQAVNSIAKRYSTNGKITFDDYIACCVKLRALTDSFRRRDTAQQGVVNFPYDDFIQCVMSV

human Sorcin [2] = target: T1, human Sorcin; experiment: SPR; OneStep as a6 but in buffer with 1 mM EDTA (HBS-PE); settings: both partners purified
human Sorcin [3] = target: T1, human Sorcin; experiment: SPR; OneStep (SensiQ Pioneer); GST-Sigma-1 receptor (1-138) amine-coupled to a COOH5 chip (125 RU), signal on GST (80 RU) subtracted; Sorcin up to 5 μM; 20 mM Hepes pH 7.4, 150 mM NaCl, 0.005% P20 with CaCl2 (500 μM in the results, 100 μM in the methods); fit with 1 site; settings: both partners purified

Molecule: RyR2 peptide corresponding to calmodulin-binding site CaMBD2
Kd (human Sorcin [1]): 120 nM

B3: RyR2 peptide corresponding to calmodulin-binding site CaMBD1 (peptide)
peptide: FRYNEVMQALNMSAALTARKTREFR
notes: source: synthetic peptide (Biomatik, purity > 90%)
Kd (human Sorcin [1]; both partners purified): > 10000 nM

More lines, now with the values ahead:

Kd (human Sorcin [1]; both partners purified): 480 nM
B1: RyR2 peptide corresponding to calmodulin-binding site CaMBD3 (peptide)
peptide: ALRYNVLTLVRMLSLKSLKKQMKRMKKMTVK
notes: as for B3

Kd (human Sorcin [2]): 12000 nM | Kd (human Sorcin [3]): 720 nM
B2: GST-Sigma-1 receptor (cytosolic domain, residues 1-138) (domain or fragment, UniProt Q99720 1-138, looked up)
chain: MQWAVGRRWAWAALLLAVAAVLTQVVWLWLGTQSFVFQREEIAQLARQYAGLDHELAFSRLIVELRRLHPGHVLPDEELQWVFVNAGGWMGAMCLLHASLSEYVLLFGTALGSRGHSGRYWAEISDTIISGTFHQWRE
notes: Sigma-1 receptor, 'cytosolic domain' residues 1-138, cloned in frame with GST in pGEX4T1; pGEX4T1 puts GST at the N-terminus (surmised); also called Sigma-1 receptor (1–138); source: E. coli BL21(DE3), purified (GSTrap HP)
